From patent US20200282010A1, “IMMUNOGENIC COMPOSITIONS AND USES THEREFOR” (Epiaxis Therapeutics Pty Ltd, priority 2017, published 2020)

Columns and labels:
PKC-α = target: T1, PKC-α (Homo sapiens, UniProt P17252); assay: Nuclear localization of PKC-α (Fn/c, immunofluorescence), specificity; type: cell-based; details: MCF7 breast cancer cell line; FIG. 1D
T1 construct: endogenous in cells; host or cells: MCF7
Excerpt: (§1) FIG. 1 is a graphical, schematic and photographic representation showing that PKC-θ can be targeted for therapeutic intervention. A) Depicts the strength of binding of recombinant purified His6-PKC-θ to increasing concentrations of different subunits and subunit combinations (α2, α2β1, and β1) of the importin α/β heterodimer nuclear transport receptor using an AlphaScreen® binding assay as described in Wagstaff et al. (2011. Journal of Biomolecular Screening 16 (2):192-200). B-C) Depicts protein structure of PKC-θ indicating binding locations for the PKC-θ peptide inhibitor, PKCθi (RKEIDPPFRPKVK), including the nuclear localization sequence (NLS) of PKC-θ. D) The specificity of PKCθi was examined on cells treated with this peptide inhibitor. Cells were screened with primary antibodies to PKC-θ (T538p), PKC-β2, PKC-β1, PKC-α, PKC-ε and PKC-γ. The nuclear to cytoplasmic fluorescence ratio (Fn/c) using the equation: Fn/c=(Fn−Fb)/(Fc−Fb), where Fn is nuclear fluorescence, Fc is cytoplasmic fluorescence, and Fb is background fluorescence was used to determine the impact on nuclear translocation/localization. […] EC^50 of inhibitors calculated using GraphPad PRISM software. F) The PKC-θ kinase activity was measured using the PKC kinase activity kit from ENZO life sciences and recombinant PKC-θ; C27 is an inhibitor of PKC-θ kinase activity, which is disclosed in Jimenez et al. (2013. […]

PKC-ε = target: T2, PKC-ε (Homo sapiens, UniProt Q02156); assay: Nuclear localization of PKC-ε (Fn/c, immunofluorescence), specificity; type: cell-based; details: MCF7 breast cancer cell line; FIG. 1D
T2 construct: endogenous in cells; host or cells: MCF7
T2 sequence (Q02156 1-737): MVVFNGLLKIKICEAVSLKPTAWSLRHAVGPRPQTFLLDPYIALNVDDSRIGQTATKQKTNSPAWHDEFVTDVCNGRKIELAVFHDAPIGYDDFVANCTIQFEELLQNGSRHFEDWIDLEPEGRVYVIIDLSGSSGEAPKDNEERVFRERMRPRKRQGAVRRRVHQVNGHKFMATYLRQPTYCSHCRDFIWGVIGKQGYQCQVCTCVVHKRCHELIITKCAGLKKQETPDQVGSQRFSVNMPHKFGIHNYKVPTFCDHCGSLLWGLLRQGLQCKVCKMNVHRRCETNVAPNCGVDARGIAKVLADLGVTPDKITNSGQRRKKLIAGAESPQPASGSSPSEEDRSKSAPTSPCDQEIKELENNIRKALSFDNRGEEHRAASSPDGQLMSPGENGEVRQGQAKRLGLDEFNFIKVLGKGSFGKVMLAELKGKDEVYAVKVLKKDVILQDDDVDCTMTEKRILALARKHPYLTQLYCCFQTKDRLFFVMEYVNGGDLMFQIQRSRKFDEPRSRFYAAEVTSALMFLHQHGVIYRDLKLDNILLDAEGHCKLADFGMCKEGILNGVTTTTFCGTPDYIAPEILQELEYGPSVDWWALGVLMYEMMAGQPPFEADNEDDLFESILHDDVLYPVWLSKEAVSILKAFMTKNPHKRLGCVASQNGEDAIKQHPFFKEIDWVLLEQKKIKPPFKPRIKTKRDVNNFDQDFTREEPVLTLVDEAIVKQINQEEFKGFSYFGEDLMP
Excerpt: as §1

nuclear localization of PKC-α (PKC-α): no effect | nuclear localization of PKC-ε (PKC-ε): no effect
Sequence: RKEIDPPFRPKVK [PKCθi]
